According to the supplement of paper PMC5998384:

Legend:
[1] = system: HeLa Kyoto; experiment: solubility change mitosis vs G1/S (difference of NP-40 vs SDS log2 ratios) (log2 ratio difference); higher = more soluble in mitosis
[2] = system: HeLa Kyoto; experiment: solubility in G1/S (NP-40 vs SDS abundance) (log2 ratio); higher = more soluble; conditions: cell cycle stage: G1/S
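Throughout, for solubility change mitosis vs G1/S (difference of NP-40 vs SDS log2 ratios): synchronized HeLa Kyoto cells (double thymidine block for G1/S, nocodazole release for mitosis), protein amounts in NP-40 versus SDS lysates quantified by mass spectrometry, three biological replicates.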
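Throughout, for solubility in G1/S (NP-40 vs SDS abundance): HeLa Kyoto cells arrested at G1/S by double thymidine block, proteins quantified by TMT10plex mass spectrometry in mild NP-40 versus SDS extracts, three biological replicates.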

Substance | solubility change mitosis (log2) [1] | solubility in G1/S (log2) [2]
MIATPLKHSRIYLPPEASSQRRNLPMDAIFFDSIPSGTLTPVKDLVKYQNSSLKLNDHKKNQFLKMTTFNNKNIFQSTMLTEATTSNSSLDISAIKPNKDGLKNKANYESPGKIFLRMKEKVLRDKQEQPSRNSSLLEPQKSGNNETFTPNRVEKKKLQHTYLCEEKENNKSFQSDDSSLRASVQGVPLESSNNDIFLPVKQKIQCQQEKKAPLHNLTYELPTLNQEQENFLAVEARNKTLTRAQLAKQIFHSKESIVATTKSKKDTFVLESVDSADEQFQNTNAETLSTNCIPIKNGSLLMVSDSERTTEGTSQQKVKEGNGKTVPGETGLPGSMKDTCKIVLATPRLHITIPRRSKRNISKLSPPRIFQTVTNGLKKNQVVQLQEWMIKSINNNTAICVEGKLIDVTNIYWHSNVIIERIEHNKLRTISGNVYILKGMIDQISMKEAGYPNYLIRKFMFGFPENWKEHIDNFLEQLRAGEKNREKTKQKQKTGRSVRDIRKSMKNDARENQTDTAQRATTTYDFDCDNLELKSNKHSESPGATELNMCHSNCQNKPTLRFPDDQVNNTIQNGGGDDLSNQELIGKKEYKMSSKKLKIGERTNERIIKSQKQETTEELDVSIDILTSREQFFSDEERKYMAINQKKAYILVTPLKSRKVIEQRCMRYNLSAGTIKAVTDFVIPECQKKSPISKSMGTLENTFEGHKSKNKEDCDERDLLTVNRKIKISNLEKEQMLTSDFKKNTRLLPKLKKIENQVAMSFYKHQSSPDLSSEESETEKEIKRKAEVKKTKAGNTKEAVVHLRKSTRNTSNIPVILEPETEESENEFYIKQKKARPSVKETLQKSGVRKEFPITEAVGSDKTNRHPLECLPGLIQDKEWNEKELQKLHCAFASLPKHKPGFWSEVAAAVGSRSPEECQRKYMENPRGKGSQKHVTKKKPANSKGQNGKRGDADQKQTIKITAKVGTLKRKQQMREFLEQLPKDDHDDFFSTTPLQHQRILLPSFQDSEDDDDILPNMDKNPTTPSSVIFPLVKTPQCQHVSPGMLGSINRNDCDKYVFRMQKYHKSNGGIVWGNIKKKLVETDFSTPTPRRKTPFNTDLGENSGIGKLFTNAVESLDEEEKDYYFSNSDSA [MIS18BP1] | 1.22 | -1.77
MAVWIQAQQLQGEALHQMQALYGQHFPIEVRHYLSQWIESQAWDSVDLDNPQENIKATQLLEGLVQELQKKAEHQVGEDGFLLKIKLGHYATQLQNTYDRCPMELVRCIRHILYNEQRLVREANNGSSPAGSLADAMSQKHLQINQTFEELRLVTQDTENELKKLQQTQEYFIIQYQESLRIQAQFGPLAQLSPQERLSRETALQQKQVSLEAWLQREAQTLQQYRVELAEKHQKTLQLLRKQQTIILDDELIQWKRRQQLAGNGGPPEGSLDVLQSWCEKLAEIIWQNRQQIRRAEHLCQQLPIPGPVEEMLAEVNATITDIISALVTSTFIIEKQPPQVLKTQTKFAATVRLLVGGKLNVHMNPPQVKATIISEQQAKSLLKNENTRNDYSGEILNNCCVMEYHQATGTLSAHFRNMSLKRIKRSDRRGAESVTEEKFTILFESQFSVGGNELVFQVKTLSLPVVVIVHGSQDNNATATVLWDNAFAEPGRVPFAVPDKVLWPQLCEALNMKFKAEVQSNRGLTKENLVFLAQKLFNNSSSHLEDYSGLSVSWSQFNRENLPGRNYTFWQWFDGVMEVLKKHLKPHWNDGAILGFVNKQQAHDLLINKPDGTFLLRFSDSEIGGITIAWKFDSQERMFWNLMPFTTRDFSIRSLADRLGDLNYLIYVFPDRPKDEVYSKYYTPVPCESATAKAVDGYVKPQIKQVVPEFVNASADAGGGSATYMDQAPSPAVCPQAHYNMYPQNPDSVLDTDGDFDLEDTMDVARRVEELLGRPMDSQWIPHAQS [STAT5B] | -0.309 | -0.0111
NSA2 | 1.41 | -2.43
MIVFGWAVFLASRSLGQGLLLTLEEHIAHFLGTGGAATTMGNSCICRDDSGTDDSVDTQQQQAENSAVPTADTRSQPRDPVRPPRRGRGPHEPRRKKQNVDGLVLDTLAVIRTLVDNDQEPPYSMITLHEMAETDEGWLDVVQSLIRVIPLEDPLGPAVITLLLDECPLPTKDALQKLTEILNLNGEVACQDSSHPAKHRNTSAVLGCLAEKLAGPASIGLLSPGILEYLLQCLKLQSHPTVMLFALIALEKFAQTSENKLTISESSISDRLVTLESWANDPDYLKRQVGFCAQWSLDNLFLKEGRQLTYEKVNLSSIRAMLNSNDVSEYLKISPHGLEARCDASSFESVRCTFCVDAGVWYYEVTVVTSGVMQIGWATRDSKFLNHEGYGIGDDEYSCAYDGCRQLIWYNARSKPHIHPCWKEGDTVGFLLDLNEKQMIFFLNGNQLPPEKQVFSSTVSGFFAAASFMSYQQCEFNFGAKPFKYPPSMKFSTFNDYAFLTAEEKIILPRHRRLALLKQVSIRENCCSLCCDEVADTQLKPCGHSDLCMDCALQLETCPLCRKEIVSRIRQISHIS [RSPRY1] | -0.00113 | -0.235
MGPGGPLLSPSRGFLLCKTGWHSNRLLGDCGPHTPVSTALSFIAVGMAAPSMKERQVCWGARDEYWKCLDENLEDASQCKKLRSSFESSCPQQWIKYFDKRRDYLKFKEKFEAGQFEPSETTAKS [COA6] | 0.327 | -0.656
MAGQEDPVQREIHQDWANREYIEIITSSIKKIADFLNSFDMSCRSRLATLNEKLTALERRIEYIEARVTKGETLT [BRK1] | 0.228 | -0.551
MAGNKGRGRAAYTFNIEAVGFSKGEKLPDVVLKPPPLFPDTDYKPVPLKTGEGEEYMLALKQELRETMKRMPYFIETPEERQDIERYSKRYMKVYKEEWIPDWRRLPREMMPRNKCKKAGPKPKKAKDAGKGTPLTNTEDVLKKMEELEKRGDGEKSDEENEEKEGSKEKSKEGDDDDDDDAAEQEEYDEEEQEEENDYINSYFEDGDDFGADSDDNMDEATY [POLR3G] | -0.0224 | 0.214
OBSL1 | -0.0157 | -0.276
MGKAKVPASKRAPSSPVAKPGPVKTLTRKKNKKKKRFWKSKAREVSKKPASGPGAVVRPPKAPEDFSQNWKALQEWLLKQKSQAPEKPLVISQMGSKKKPKIIQQNKKETSPQVKGEEMPAGKDQEASRGSVPSGSKMDRRAPVPRTKASGTEHNKKGTKERTNGDIVPERGDIEHKKRKAKEAAPAPPTEEDIWFDDVDPADIEAAIGPEAAKIARKQLGQSEGSVSLSLVKEQAFGGLTRALALDCEMVGVGPKGEESMAARVSIVNQYGKCVYDKYVKPTEPVTDYRTAVSGIRPENLKQGEELEVVQKEVAEMLKGRILVGHALHNDLKVLFLDHPKKKIRDTQKYKPFKSQVKSGRPSLRLLSEKILGLQVQQAEHCSIQDAQAAMRLYVMVKKEWESMARDRRPLLTAPDHCSDDA [REXO4] | 0.875 | -0.936
MAAQIPESDQIKQFKEFLGTYNKLTETCFLDCVKDFTTREVKPEETTCSEHCLQKYLKMTQRISMRFQEYHIQQNEALAAKAGLLGQPR [TIMM9] | 0.239 | -0.307
MQSESGIVPDFEVGEEFHEEPKTYYELKSQPLKSSSSAEHPGASKPPISSSSMTSRILLRQQLMREQMQEQERREQQQKLQAAQFMQQRVPVSQTPAINVSVPTTLPSATQVPMEVLKVQTHLENPTKYHIQQAQRQQVKQYLSTTLANKHANQVLSLPCPNQPGDHVMPPVPGSSAPNSPMAMLTLNSNCEKEGFYKFEEQNRAESECPGMNTHSRASCMQMDDVIDDIISLESSYNEEILGLMDPALQMANTLPVSGNLIDLYGNQGLPPPGLTISNSCPANLPNIKRELTACIFPTESEARALAKERQKKDNHNLIERRRRFNINDRIKELGTLIPKSNDPDMRWNKGTILKASVDYIRKLQREQQRAKELENRQKKLEHANRHLLLRIQELEMQARAHGLSLIPSTGLCSPDLVNRIIKQEPVLENCSQDLLQHHADLTCTTTLDLTDGTITFNNNLGTGTEANQAYSVPTKMGSKLEDILMDDTLSPVGVTDPLLSSVSPGASKTSSRRSSMSMEETEHTC [MITF] | 0.021 | 0.326
MEEERGSALAAESALEKNVAELTVMDVYDIASLVGHEFERVIDQHGCEAIARLMPKVVRVLEILEVLVSRHHVAPELDELRLELDRLRLERMDRIEKERKHQKELELVEDVWRGEAQDLLSQIAQLQEENKQLMTNLSHKDVNFSEEEFQKHEGMSERERQVMKKLKEVVDKQRDEIRAKDRELGLKNEDVEALQQQQTRLMKINHDLRHRVTVVEAQGKALIEQKVELEADLQTKEQEMGSLRAELGKLRERLQGEHSQNGEEEPETEPVGEESISDAEKVAMDLKDPNRPRFTLQELRDVLHERNELKSKVFLLQEELAYYKSEEMEEENRIPQPPPIAHPRTSPQPESGIKRLFSFFSRDKKRLANTQRNVHIQESFGQWANTHRDDGYTEQGQEALQHL [RILPL1] | -0.0361 | 0.246
MKSSGLFPFLVLLALGTLAPWAVEGSGKSFKAGVCPPKKSAQCLRYKKPECQSDWQCPGKKRCCPDTCGIKCLDPVDTPNPTRRKPGKCPVTYGQCLMLNPPNFCEMDGQCKRDLKCCMGMCGKSCVSPVKA [SLPI] | 0.714 | -0.403
MKEMSANTVLDSQRQQKHYGITSPISLASPKEIDHIYTQKLIDAMKPFGVFEDEEELNHRLVVLGKLNNLVKEWISDVSESKNLPPSVVATVGGKIFTFGSYRLGVHTKGADIDALCVAPRHVERSDFFQSFFEKLKHQDGIRNLRAVEDAFVPVIKFEFDGIEIDLVFARLAIQTISDNLDLRDDSRLRSLDIRCIRSLNGCRVTDEILHLVPNKETFRLTLRAVKLWAKRRGIYSNMLGFLGGVSWAMLVARTCQLYPNAAASTLVHKFFLVFSKWEWPNPVLLKQPEESNLNLPVWDPRVNPSDRYHLMPIITPAYPQQNSTYNVSTSTRTVMVEEFKQGLAVTDEILQGKSDWSKLLEPPNFFQKYRHYIVLTASASTEENHLEWVGLVESKIRVLVGNLERNEFITLAHVNPQSFPGNKEHHKDNNYVSMWFLGIIFRRVENAESVNIDLTYDIQSFTDTVYRQANNINMLKEGMKIEATHVKKKQLHHYLPAEILQKKKKQSLSDVNRSSGGLQSKRLSLDSSCLDSSRDTDNGTPFNSPASKSDSPSVGETERNSAEPAAVIVEKPLSVPPAQGLSIPVIGAKVDSTVKTVSPPTVCTIPTVVGRNVIPRITTPHNPAQGQPHLNGMSNITKTVTPKRSHSPSIDGTPKRLKDVEKFIRLESTFKDPRTAEERKRKSVDAIGGESMPIPTIDTSRKKRLPSKELPDSSSPVPANNIRVIKNSIRLTLNR [PAPOLG] | -0.0762 | -0.0339
MAAATLTSKLYSLLFRRTSTFALTIIVGVMFFERAFDQGADAIYDHINEGKLWKHIKHKYENK [UQCR10] | 0.0588 | -0.233
